Reference: patent US20130209454A1
Positions count from the first letter of the chain named. In names and notes the source's numbering stands.

Experiments:
Experiment in all cases: cell-based or functional assay
[1] = molecular target: HIV-1 strain Q842.d12 envelope (gp120) (HIV-1)
[2] = molecular target: HIV-1 strain PVO.4 envelope (gp120) (HIV-1)
[3] = molecular target: HIV-1 Env of strain Q842.d12 (HIV-1)
[4] = molecular target: HIV-1 Env of strain ZM233M.PB6 (HIV-1)
[5] = molecular target: HIV-1 Env of strain 6535.3 (HIV-1)
[6] = molecular target: HIV-1 strain Ce2060_G9 envelope (gp120) (HIV-1)
[7] = molecular target: HIV-1 strain TRJO4551.58 envelope (gp120) (HIV-1)
[8] = molecular target: HIV-1 strain Q769.d22 envelope (gp120) (HIV-1)
[9] = molecular target: HIV-1 strain 211-9 envelope (gp120) (HIV-1)
[10] = molecular target: HIV-1 strain ZM214M.PL15 envelope (gp120) (HIV-1)
[11] = molecular target: HIV-1 Env of strain 3817.v2.c59 (HIV-1)
[12] = molecular target: HIV-1 Env of strain 6480.v4.c25 (HIV-1)
[13] = molecular target: HIV-1 Env of strain REJO4541.67 (HIV-1)
[14] = molecular target: HIV-1 strain QH0692.42 envelope (gp120) (HIV-1)
[15] = molecular target: HIV-1 Env of strain Du172.17 (HIV-1)
[16] = molecular target: HIV-1 Env of strain WEAU_d15_410_787 (HIV-1)
[17] = molecular target: HIV-1 strain Ce2010_F5 envelope (gp120) (HIV-1)
[18] = molecular target: HIV-1 Env of strain ZM214M.PL15 (HIV-1)
[19] = molecular target: HIV-1 Env of strain CNE30 (HIV-1)
[20] = molecular target: HIV-1 strain 3016.v5.c45 envelope (gp120) (HIV-1)
[21] = molecular target: HIV-1 Env of strain T278-50 (HIV-1)
[22] = molecular target: HIV-1 Env of strain X1254_c3 (HIV-1)
[23] = molecular target: HIV-1 strain AC10.0.29 envelope (gp120) (HIV-1)
[24] = molecular target: HIV-1 strain T278-50 envelope (gp120) (HIV-1)
[25] = molecular target: HIV-1 Env of strain CNE17 (HIV-1)
[26] = molecular target: HIV-1 strain CNE17 envelope (gp120) (HIV-1)
[27] = molecular target: HIV-1 strain 0815.v3.c3 envelope (gp120) (HIV-1)
[28] = molecular target: HIV-1 Env of strain T250-4 (HIV-1)
[29] = molecular target: HIV-1 Env of strain X2131_C1_B5 (HIV-1)
[30] = molecular target: HIV-1 strain 3103.v3.c10 envelope (gp120) (HIV-1)
[31] = molecular target: HIV-1 Env of strain 1006_11_C3_1601 (HIV-1)
[32] = molecular target: HIV-1 Env of strain ZM109F.PB4 (HIV-1)
[33] = molecular target: HIV-1 strain 6811.v7.c18 envelope (gp120) (HIV-1)
[34] = molecular target: HIV-1 strain CNE21 envelope (gp120) (HIV-1)
[35] = molecular target: HIV-1 strain CNE30 envelope (gp120) (HIV-1)
[36] = molecular target: HIV-1 strain CAAN5342.A2 envelope (gp120) (HIV-1)
[37] = molecular target: HIV-1 Env of strain 3415.v1.c1 (HIV-1)
[38] = molecular target: HIV-1 Env of strain Ce0682_E4 (HIV-1)
[39] = molecular target: HIV-1 strain Ce1176_A3 envelope (gp120) (HIV-1)
[40] = molecular target: HIV-1 strain R1166.c01 envelope (gp120) (HIV-1)
[41] = molecular target: HIV-1 strain C2101.c01 envelope (gp120) (HIV-1)
[42] = molecular target: HIV-1 Env of strain Q769.d22 (HIV-1)
[43] = molecular target: HIV-1 Env of strain C3347.c11 (HIV-1)
[44] = molecular target: HIV-1 strain X1193_c1 envelope (gp120) (HIV-1)
[45] = molecular target: HIV-1 strain ZM233M.PB6 envelope (gp120) (HIV-1)
[46] = molecular target: HIV-1 Env of strain TROJO4551.58 (HIV-1)
[47] = molecular target: HIV-1 strain 6540.v4.c1 envelope (gp120) (HIV-1)
[48] = molecular target: HIV-1 Env of strain Q259.d2.17 (HIV-1)
[49] = molecular target: HIV-1 Env of strain Ce2010_F5 (HIV-1)
[50] = molecular target: HIV-1 Env of strain CAP210.2.00.E8 (HIV-1)

B1: NIH45-46^G54Y IgG (antibody, name in Kabat numbering, V domains shown)
VH: QVRLSQSGGQMKKPGESMRLSCRASGYEFLNCPINWIRLAPGRRPEWMGWLKPRYGAVNYARKFQGRVTMTRDVYSDTAFLELRSLTSDDTAVYFCTRGKYCTARDYYNWDFEHWGRGAPVTVSS
VL: EIVLTQSPATLSLSPGETAIISCRTSQSGSLAWYQQRPGQAPRLVIYSGSTRAAGIPDRFSGSRWGADYNLSISNLESGDFGVYYCQQYEFFGQGTKVQVDI
[1]
  neutralization IC80: 0.045 µg/mL
[2]
  neutralization IC80: 0.18 µg/mL
[3]
  neutralization IC50: 0.015 µg/mL
[4]
  neutralization IC50: 0.16 µg/mL
[5]
  neutralization IC50: 0.08 µg/mL
[6]
  neutralization IC80: 0.068 µg/mL
[7]
  neutralization IC80: 0.07 µg/mL
[8]
  neutralization IC80: 0.024 µg/mL
[9]
  neutralization IC80: > 50 µg/mL
[10]
  neutralization IC80: 0.23 µg/mL
[11]
  neutralization IC50: > 50 µg/mL
[12]
  neutralization IC50: 0.018 µg/mL
[13]
  neutralization IC50: 0.007 µg/mL
[14]
  neutralization IC80: 1.5 µg/mL
[15]
  neutralization IC50: > 50 µg/mL
[16]
  neutralization IC50: 0.002 µg/mL
[17]
  neutralization IC80: 0.235 µg/mL
[18]
  neutralization IC50: 0.06 µg/mL
[19]
  neutralization IC50: 0.099 µg/mL
[20]
  neutralization IC80: > 50 µg/mL
[21]
  neutralization IC50: > 50 µg/mL
[22]
  neutralization IC50: 0.013 µg/mL
[23]
  neutralization IC80: 0.9 µg/mL
[24]
  neutralization IC80: > 50 µg/mL
[25]
  neutralization IC50: 0.073 µg/mL
[26]
  neutralization IC80: 0.264 µg/mL
[27]
  neutralization IC80: 0.015 µg/mL
[28]
  neutralization IC50: > 50 µg/mL
[29]
  neutralization IC50: 0.1 µg/mL
[30]
  neutralization IC80: 0.81 µg/mL
[31]
  neutralization IC50: 0.005 µg/mL
[32]
  neutralization IC50: 0.026 µg/mL
[33]
  neutralization IC80: 0.059 µg/mL
[34]
  neutralization IC80: 0.29 µg/mL
[35]
  neutralization IC80: 0.263 µg/mL
[36]
  neutralization IC80: 0.27 µg/mL
[37]
  neutralization IC50: < 0.001 µg/mL
[38]
  neutralization IC50: 0.017 µg/mL
[39]
  neutralization IC80: 0.58 µg/mL
[40]
  neutralization IC80: 0.84 µg/mL
[41]
  neutralization IC80: 0.27 µg/mL
[42]
  neutralization IC50: 0.007 µg/mL
[43]
  neutralization IC50: 0.011 µg/mL
[44]
  neutralization IC80: 0.024 µg/mL
[45]
  neutralization IC80: 0.78 µg/mL
[46]
  neutralization IC50: 0.03 µg/mL
[47]
  neutralization IC80: > 50 µg/mL
[48]
  neutralization IC50: 0.009 µg/mL
[49]
  neutralization IC50: 0.049 µg/mL

B2: NIH45-46^G54W(HC), S28Y(LC) (antibody, V domains shown)
VH: B1 VH with Y55W
VL: B1 VL with S28Y
[3]
  IC50, pseudovirus neutralization: 0.001 µg/mL
[4]
  IC50, pseudovirus neutralization: 0.011 µg/mL
[5]
  IC50, pseudovirus neutralization: 0.015 µg/mL
[11]
  IC50, pseudovirus neutralization: 5.14 µg/mL
[12]
  IC50, pseudovirus neutralization: 0.016 µg/mL
[13]
  IC50, pseudovirus neutralization: 0.001 µg/mL
[15]
  IC50, pseudovirus neutralization: 0.015 µg/mL
[16]
  IC50, pseudovirus neutralization: 0.008 µg/mL
[50]
  IC50, pseudovirus neutralization: 1.95 µg/mL
[18]
  IC50, pseudovirus neutralization: 0.036 µg/mL
[19]
  IC50, pseudovirus neutralization: 0.082 µg/mL
[21]
  IC50, pseudovirus neutralization: > 50 µg/mL
[22]
  IC50, pseudovirus neutralization: 0.006 µg/mL
[25]
  IC50, pseudovirus neutralization: 0.064 µg/mL
[28]
  IC50, pseudovirus neutralization: 1.55 µg/mL
[29]
  IC50, pseudovirus neutralization: 0.031 µg/mL
[31]
  IC50, pseudovirus neutralization: 0.009 µg/mL
[32]
  IC50, pseudovirus neutralization: 0.013 µg/mL
[37]
  IC50, pseudovirus neutralization: 0.013 µg/mL
[38]
  IC50, pseudovirus neutralization: 0.007 µg/mL
[42]
  IC50, pseudovirus neutralization: 0.003 µg/mL
[43]
  IC50, pseudovirus neutralization: 0.007 µg/mL
[48]
  IC50, pseudovirus neutralization: 0.001 µg/mL
[49]
  IC50, pseudovirus neutralization: 0.03 µg/mL

B3: NIH45-46^G54F IgG (antibody, name in Kabat numbering, V domains shown)
VH: B1 VH with Y55F
VL: B1 VL
[1]
  neutralization IC80: 0.039 µg/mL
[2]
  neutralization IC80: 0.25 µg/mL
[3]
  neutralization IC50: 0.011 µg/mL
[4]
  neutralization IC50: 0.22 µg/mL
[5]
  neutralization IC50: 0.07 µg/mL
[6]
  neutralization IC80: 0.085 µg/mL
[7]
  neutralization IC80: 0.08 µg/mL
[8]
  neutralization IC80: 0.023 µg/mL
[9]
  neutralization IC80: > 50 µg/mL
[10]
  neutralization IC80: 0.3 µg/mL
[11]
  neutralization IC50: > 50 µg/mL
[12]
  neutralization IC50: 0.014 µg/mL
[13]
  neutralization IC50: 0.007 µg/mL
[14]
  neutralization IC80: 1.65 µg/mL
[15]
  neutralization IC50: > 50 µg/mL
[16]
  neutralization IC50: < 0.001 µg/mL
[17]
  neutralization IC80: 0.186 µg/mL
[18]
  neutralization IC50: 0.09 µg/mL
[19]
  neutralization IC50: 0.1 µg/mL
[20]
  neutralization IC80: 37 µg/mL
[21]
  neutralization IC50: > 50 µg/mL
[22]
  neutralization IC50: 0.011 µg/mL
[23]
  neutralization IC80: 1.12 µg/mL
[24]
  neutralization IC80: > 50 µg/mL
[25]
  neutralization IC50: 0.075 µg/mL
[26]
  neutralization IC80: 0.287 µg/mL
[27]
  neutralization IC80: 0.014 µg/mL
[28]
  neutralization IC50: > 50 µg/mL
[29]
  neutralization IC50: 0.1 µg/mL
[30]
  neutralization IC80: 1.28 µg/mL
[31]
  neutralization IC50: 0.003 µg/mL
[32]
  neutralization IC50: 0.022 µg/mL
[33]
  neutralization IC80: 0.063 µg/mL
[34]
  neutralization IC80: 0.66 µg/mL
[35]
  neutralization IC80: 0.348 µg/mL
[36]
  neutralization IC80: 0.28 µg/mL
[37]
  neutralization IC50: < 0.001 µg/mL
[38]
  neutralization IC50: 0.011 µg/mL
[39]
  neutralization IC80: 0.83 µg/mL
[40]
  neutralization IC80: 1.32 µg/mL
[41]
  neutralization IC80: 0.42 µg/mL
[42]
  neutralization IC50: 0.005 µg/mL
[43]
  neutralization IC50: 0.015 µg/mL
[44]
  neutralization IC80: 0.026 µg/mL
[45]
  neutralization IC80: 0.99 µg/mL
[46]
  neutralization IC50: 0.03 µg/mL
[47]
  neutralization IC80: > 50 µg/mL
[48]
  neutralization IC50: 0.009 µg/mL
[49]
  neutralization IC50: 0.046 µg/mL
